Data reported in patent US20150111836A1, “CELLULAR APOBEC3 PROTEINS AND MODULATORS THEREOF FOR REGULATING DNA REPAIR PROCESSES AND TREATING PROLIFERATIVE DISEASES” (priority 2012, published 2015).

Columns and labels:
[1] = target: purified recombinant A3G-His6 (human APOBEC3G with C-terminal Myc-His6 tag, expressed in 293T cells) (human) (UniProt Q9HC16); assay: cell-based or functional assay
[2] = target: virion-associated A3G (endogenous A3G of H9 cells packaged in HIV-1 particles) (human) (UniProt Q9HC16); assay: cell-based or functional assay

purified recombinant A3G-His6 (human APOBEC3G with C-terminal Myc-His6 tag, expressed in 293T cells) (human), sequence (Q9HC16 whole entry): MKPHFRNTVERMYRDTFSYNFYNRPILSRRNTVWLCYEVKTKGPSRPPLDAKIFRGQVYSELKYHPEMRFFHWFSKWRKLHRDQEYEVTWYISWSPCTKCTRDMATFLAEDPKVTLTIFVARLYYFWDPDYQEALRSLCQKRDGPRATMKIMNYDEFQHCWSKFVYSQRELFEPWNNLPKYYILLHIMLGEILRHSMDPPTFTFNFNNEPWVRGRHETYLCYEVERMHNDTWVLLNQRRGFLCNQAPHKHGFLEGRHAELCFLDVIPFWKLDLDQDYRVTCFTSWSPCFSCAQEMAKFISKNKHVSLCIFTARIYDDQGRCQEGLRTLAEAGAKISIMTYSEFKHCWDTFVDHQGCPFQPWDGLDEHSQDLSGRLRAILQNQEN

BSA (from UniProt P02769 25-607)
A3G deaminase activity [1]: 10 µM

Vif9-23 peptide
inhibition of A3G deaminase activity [1]: 1 µM

Vif37-51 peptide
inhibition of A3G deaminase activity [1]: 1 µM

Vif101-115 peptide
inhibition of A3G deaminase activity [1]: 1 µM

Vif113-127 peptide
inhibition of A3G deaminase activity [1]: 1 µM

Vif molecules associated with HIV-1 particles (wt HIV-1 HXB2 virions) (from UniProt P05900 1-192)
specific activity of virion-associated A3G deaminase (wt vs Δvif particles, normalized to A3G protein content) [2]: 36.5%
